The values below come from patent EP1808439A2.

This experiment has as its target epiligrin-ECM^t (trypsin-treated HFK-ECM) (human) (UniProt Q16787). As to the kind of experiment: cell-based or functional assay.
Sequence of UniProt Q16787 (Q16787 other isoform, or with tags, fused parts or gaps): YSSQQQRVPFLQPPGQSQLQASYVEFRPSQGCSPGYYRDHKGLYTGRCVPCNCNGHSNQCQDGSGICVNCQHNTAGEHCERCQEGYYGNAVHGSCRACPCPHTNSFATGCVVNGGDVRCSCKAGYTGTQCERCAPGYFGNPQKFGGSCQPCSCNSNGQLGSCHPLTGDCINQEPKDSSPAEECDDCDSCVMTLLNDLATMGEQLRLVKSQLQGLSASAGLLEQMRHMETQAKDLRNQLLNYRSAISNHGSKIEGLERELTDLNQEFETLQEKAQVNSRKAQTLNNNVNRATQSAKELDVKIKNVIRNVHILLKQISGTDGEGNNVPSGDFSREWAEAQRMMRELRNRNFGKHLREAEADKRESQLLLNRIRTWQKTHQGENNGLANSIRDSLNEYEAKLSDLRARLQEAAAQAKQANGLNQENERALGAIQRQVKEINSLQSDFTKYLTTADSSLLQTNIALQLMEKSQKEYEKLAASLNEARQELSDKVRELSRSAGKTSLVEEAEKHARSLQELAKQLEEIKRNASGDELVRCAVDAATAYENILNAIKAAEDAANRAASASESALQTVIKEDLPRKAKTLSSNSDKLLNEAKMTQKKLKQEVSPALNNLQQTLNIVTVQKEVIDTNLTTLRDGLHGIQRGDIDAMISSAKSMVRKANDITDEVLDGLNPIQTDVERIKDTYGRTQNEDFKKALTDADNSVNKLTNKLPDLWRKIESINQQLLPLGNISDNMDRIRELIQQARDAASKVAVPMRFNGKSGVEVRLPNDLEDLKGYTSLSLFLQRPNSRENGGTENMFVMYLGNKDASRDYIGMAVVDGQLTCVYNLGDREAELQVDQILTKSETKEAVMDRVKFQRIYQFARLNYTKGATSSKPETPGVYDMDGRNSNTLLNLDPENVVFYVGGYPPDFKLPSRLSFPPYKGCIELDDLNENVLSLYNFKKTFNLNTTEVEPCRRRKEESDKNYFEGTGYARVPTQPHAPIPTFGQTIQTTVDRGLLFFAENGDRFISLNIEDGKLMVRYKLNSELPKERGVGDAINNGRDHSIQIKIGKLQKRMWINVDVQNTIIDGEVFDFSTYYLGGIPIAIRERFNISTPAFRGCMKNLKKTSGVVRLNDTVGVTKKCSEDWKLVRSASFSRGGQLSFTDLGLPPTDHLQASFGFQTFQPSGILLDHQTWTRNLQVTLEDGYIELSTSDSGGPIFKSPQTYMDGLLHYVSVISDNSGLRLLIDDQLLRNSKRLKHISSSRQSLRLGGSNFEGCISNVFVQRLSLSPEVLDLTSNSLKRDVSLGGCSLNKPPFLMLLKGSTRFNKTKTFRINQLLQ

As for “integrin α6β4, P23229 24-1130; P16144 28-1822”, the % adherent cells, 51Cr-labelled HFK on epiligrin-ECM^t, 4°C, 0 min came to 30%; the % adherent cells, 51Cr-labelled HFK on epiligrin-ECM^t, 4°C, 2 min was 28%; the % adherent cells, 51Cr-labelled HFK on epiligrin-ECM^t, 4°C, 5 min is 28%; the % adherent cells, 51Cr-labelled HFK on epiligrin-ECM^t, 4°C, 10 min came out at 25%. The substance also showed a % adherent cells, 51Cr-labelled HFK on epiligrin-ECM^t, 4°C, 15 min of 37%; a % adherent cells, 51Cr-labelled HFK on epiligrin-ECM^t, 4°C, 25 min of 35%; a % adherent cells, 51Cr-labelled HFK on epiligrin-ECM^t, 4°C, 30 min of 31%; a % adherent cells, 51Cr-labelled HFK on epiligrin-ECM^t, 4°C, 45 min of 30%. The same substance registered a % adherent cells, 51Cr-labelled HFK on epiligrin-ECM^t, 4°C, 60 min of 35%; a % adherent cells, 51Cr-labelled HFK on epiligrin-ECM^t, 37°C, 0 min of 0%; a % adherent cells, 51Cr-labelled HFK on epiligrin-ECM^t, 37°C, 2 min of 10%; a % adherent cells, 51Cr-labelled HFK on epiligrin-ECM^t, 37°C, 5 min of 10%. The % adherent cells, 51Cr-labelled HFK on epiligrin-ECM^t, 37°C, 10 min is 20%; the % adherent cells, 51Cr-labelled HFK on epiligrin-ECM^t, 37°C, 15 min turned out to be 26%; the % adherent cells, 51Cr-labelled HFK on epiligrin-ECM^t, 37°C, 25 min came to 36%; the % adherent cells, 51Cr-labelled HFK on epiligrin-ECM^t, 37°C, 30 min was found to be 38%. This substance also registered a % adherent cells, 51Cr-labelled HFK on epiligrin-ECM^t, 37°C, 45 min of 50% and a % adherent cells, 51Cr-labelled HFK on epiligrin-ECM^t, 37°C, 60 min of 60%.
